This passage reports switch fluorescence ratio results from the supplement of paper PMC10126150.

± gives the standard deviation of the averaged measurements.

The data set relates to ATP. Nature of the data set: switch fluorescence ratio, 500 uM ATP over buffer (Cy3 cluster intensity, sum of 5 cycles each) (fold (ratio)); higher = stronger signal-on switching upon ATP binding; sequences stand for … in TCGTCGGCAGCGTCAGATGTGTATAAGAGACAGTTTTTTTTTTTTTTTTTTTTTTTTT…TC. The conditions noted are these: aptamer strand: ATP DNA aptamer (quencher-CACCTGGGGGAGTATTGCGGAGGAAGG + anchor), 100 nM annealed; ATP concentration: 500 uM. An outline of the steps:
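The quencher-labelled ATP aptamer, at 100 nM, was annealed to Cy3-labelled switching-strand clusters on a modified Illumina MiSeq flow-cell. The clusters were imaged in selection buffer, then after 15 min with 500 uM ATP at 22 °C, and this buffer/ATP cycle ran five times with NaOH stripping and re-annealing between runs. Per-cluster fluorescence ratios, summed target-cycle over summed buffer-cycle Cy3 intensity, were averaged per switch-domain sequence. Clusters outside 100-1000 RFU were excluded.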
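Note: ATP exposure 15 min at 22 °C before imaging.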

As for GTTTAAAATG, the switch fluorescence ratio came to 1 ± 0.024.

For the sequence TTTTTTCTGG, the switch fluorescence ratio was 1 ± 0.091.

Take TTGCAGTGTT: the switch fluorescence ratio was 1.06 ± 0.098.

As for CCCGTATACA, the switch fluorescence ratio worked out at 1.206 ± 0.0072.

Regarding GCAGGGGTTT, the switch fluorescence ratio amounted to 1.25 ± 0.48.

As to TTTTACCTTT, the switch fluorescence ratio was 1 ± 0.032.

Consider CCTTGGGGAT, for which the switch fluorescence ratio is 1.11 ± 0.12.

As for GTAAGATGTG, the switch fluorescence ratio came out at 1.03 ± 0.028.

As for TAGGGTGGGC, the switch fluorescence ratio turned out to be 0.954 ± 0.028.

TTGAGAAGGG: the switch fluorescence ratio was 1.04 ± 0.04.

In the case of TAAAATTTAA, the switch fluorescence ratio was determined as 1.01 ± 0.05.

In the case of GGGATAGTGG, the switch fluorescence ratio was determined as 0.979 ± 0.03.

For TAATAGTGAT, the switch fluorescence ratio is 0.983 ± 0.018.

CTGGTGGGTC: the switch fluorescence ratio stood at 1.01 ± 0.018.

As to GTGAGTAATT, the switch fluorescence ratio came to 1.02 ± 0.078.

For the sequence GAGGAGTGAA, the switch fluorescence ratio was found to be 0.9973 ± 0.0067.

As to TTGTGGGGCA, the switch fluorescence ratio amounted to 1.02 ± 0.021.

On to GGGACGCAGG, for which the switch fluorescence ratio was determined as 1.015 ± 0.008.

For CGTCGTAGTG, the switch fluorescence ratio was determined as 0.989 ± 0.016.

Consider TCTGTATTTG, for which the switch fluorescence ratio amounted to 0.981 ± 0.028.

Turning to TCGGTTGAGG, the switch fluorescence ratio was 0.983 ± 0.025.

As to ATAGTTTTTT, the switch fluorescence ratio stood at 0.977 ± 0.017.

On to TTCCGGGTAC, for which the switch fluorescence ratio worked out at 3.27 ± 0.22.

GGGGAGGTCT: the switch fluorescence ratio came out at 1.01 ± 0.03.

GTCGGTTGGG: the switch fluorescence ratio was 0.99 ± 0.026.

Turning to AACGGCGTGA, the switch fluorescence ratio turned out to be 1.08 ± 0.14.

In the case of TGATTAGAGT, the switch fluorescence ratio stood at 1.01 ± 0.016.

For the sequence ATATGCTCAC, the switch fluorescence ratio was 1.05 ± 0.03.

In the case of TTAAGGGTAA, the switch fluorescence ratio turned out to be 0.967 ± 0.047.

On to CACAGCAGCG, for which the switch fluorescence ratio stood at 1.048 ± 0.0029.

Regarding TTTTTTCGTT, the switch fluorescence ratio was determined as 0.988 ± 0.022.

As to TGGGTTAACT, the switch fluorescence ratio came to 1.02 ± 0.041.

For GTGAGGGAGC, the switch fluorescence ratio turned out to be 1.12 ± 0.27.

In the case of TTAATAAAC, the switch fluorescence ratio was determined as 1.01 ± 0.017.

With GGTGTTCGTG, the switch fluorescence ratio is 0.985 ± 0.019.

As for AGTATTTATT, the switch fluorescence ratio came out at 1 ± 0.03.

For TCGGGGGGTG, the switch fluorescence ratio turned out to be 1.01 ± 0.041.

As to CGGTTAGGAT, the switch fluorescence ratio stood at 0.994 ± 0.0078.

In the case of CGATGGCTA, the switch fluorescence ratio amounted to 0.965 ± 0.041.

Turning to GATATGTGGT, the switch fluorescence ratio was 0.9989 ± 0.004.

As for GGAATGGAAC, the switch fluorescence ratio was found to be 1.01 ± 0.024.

Turning to TCGACGGGGG, the switch fluorescence ratio came out at 1.06 ± 0.081.

Consider TTGGGCGGTG, for which the switch fluorescence ratio turned out to be 1.01 ± 0.018.

For the sequence ACGAGAAGGG, the switch fluorescence ratio worked out at 1.02 ± 0.043.

As to TGCCGAAGGT, the switch fluorescence ratio was found to be 1.03 ± 0.024.

ATTTGATAGT: the switch fluorescence ratio was 1.007 ± 0.0052.

For GCCGGTTAGA, the switch fluorescence ratio was determined as 0.998 ± 0.03.

Turning to AACGGTGATT, the switch fluorescence ratio is 1.01 ± 0.07.

On to AGGGTTTTAG, for which the switch fluorescence ratio is 0.994 ± 0.019.

TTGTTCTCGC: the switch fluorescence ratio is 1.02 ± 0.048.

Consider ATTTTTTAGT, for which the switch fluorescence ratio was found to be 0.983 ± 0.013.

As to ATAGTGAGGT, the switch fluorescence ratio stood at 0.986 ± 0.038.

In the case of GGGGATGTAG, the switch fluorescence ratio turned out to be 0.979 ± 0.026.

Regarding CATTTGTGGA, the switch fluorescence ratio was determined as 1.003 ± 0.0062.

On to TGCTGGGGTC, for which the switch fluorescence ratio was 0.977 ± 0.016.

With CTAGAAAGGG, the switch fluorescence ratio is 0.999 ± 0.02.

With TAGTTAGGGG, the switch fluorescence ratio amounted to 1.01 ± 0.058.

Regarding TTACGGCCCG, the switch fluorescence ratio worked out at 1.05 ± 0.051.

In the case of GCCGGGAGGA, the switch fluorescence ratio is 1.01 ± 0.032.

In the case of CATGGGGGTA, the switch fluorescence ratio amounted to 0.982 ± 0.026.

On to ATTCTTGTTC, for which the switch fluorescence ratio was 0.981 ± 0.05.

For the sequence CGATGTGGGT, the switch fluorescence ratio amounted to 0.989 ± 0.044.

Take CGTGCTGGTT: the switch fluorescence ratio came out at 1.01 ± 0.061.

In the case of ACACTTGTTG, the switch fluorescence ratio was determined as 0.963 ± 0.028.

Consider CGTGATGTTT, for which the switch fluorescence ratio came out at 1 ± 0.047.

Consider CGGCTGGTAC, for which the switch fluorescence ratio stood at 1.86 ± 0.027.

Turning to TCGGGTAAAG, the switch fluorescence ratio is 0.9947 ± 0.0053.

For GGGGACTACT, the switch fluorescence ratio was found to be 1 ± 0.025.

As to TCAGGCGTTG, the switch fluorescence ratio was determined as 0.971 ± 0.027.

For GAAGTGAGCA, the switch fluorescence ratio stood at 1.01 ± 0.044.

Turning to CTTGTCAGGG, the switch fluorescence ratio was 0.975 ± 0.021.

As to TTTACTTGCG, the switch fluorescence ratio was 0.9759 ± 0.0038.

For TTGTTGGTAG, the switch fluorescence ratio is 1.03 ± 0.031.

Consider ATGAAAGACC, for which the switch fluorescence ratio was found to be 1.0427 ± 0.00025.

With TGGTTGTTGT, the switch fluorescence ratio is 0.96 ± 0.014.

For CACGGAAGCG, the switch fluorescence ratio turned out to be 1.05 ± 0.032.

On to CTAGAGGCTG, for which the switch fluorescence ratio was found to be 1.03 ± 0.073.

For CGTGATTATA, the switch fluorescence ratio came out at 0.992 ± 0.0072.

Regarding CAATTGCAGG, the switch fluorescence ratio came to 1.01 ± 0.014.

GCACAAGATG: the switch fluorescence ratio stood at 1.0073 ± 0.00098.

TTTAAGCGTT: the switch fluorescence ratio was determined as 1.054 ± 0.0066.

For GTTTTGATTG, the switch fluorescence ratio was 1 ± 0.04.

In the case of TAGGGGGGTT, the switch fluorescence ratio was 1 ± 0.04.

CCTTTCGGGA: the switch fluorescence ratio came out at 1.73 ± 0.87.

With TACGGGCCGG, the switch fluorescence ratio is 0.98 ± 0.011.

Take TTCGGCCCCA: the switch fluorescence ratio came out at 0.99 ± 0.031.

Take TTTGGTAGAA: the switch fluorescence ratio turned out to be 0.996 ± 0.025.

Consider GCGTCTTGGG, for which the switch fluorescence ratio was 0.96 ± 0.025.

As to TATACGGAAG, the switch fluorescence ratio amounted to 1.02 ± 0.046.

Regarding ATGTATGTTG, the switch fluorescence ratio was 0.982 ± 0.072.

Regarding GGTGGAAATC, the switch fluorescence ratio stood at 1.09 ± 0.16.

For AGGGTTATGT, the switch fluorescence ratio is 0.971 ± 0.03.

Take TGCAGGCTGC: the switch fluorescence ratio came to 0.989 ± 0.048.

As to GAGTTTTGGT, the switch fluorescence ratio worked out at 1.03 ± 0.019.

Consider ATCGCTTGAG, for which the switch fluorescence ratio was 0.9725 ± 0.0034.

Consider GTTAACTAAT, for which the switch fluorescence ratio came to 1.57 ± 0.85.

As for GGACGGCGGG, the switch fluorescence ratio was 1 ± 0.034.

As to TAGGAAGCGT, the switch fluorescence ratio amounted to 0.9777 ± 0.0039.

As to TTTTGTTCTT, the switch fluorescence ratio was determined as 0.984 ± 0.012.

For CTTCTCGGCG, the switch fluorescence ratio came out at 1.08 ± 0.053.

For GAAGAGGGGT, the switch fluorescence ratio amounted to 1.01 ± 0.014.

On to GGGGGGAAGA, for which the switch fluorescence ratio was 0.994 ± 0.025.

Turning to CAGGCTACCT, the switch fluorescence ratio stood at 1.2 ± 0.092.

Take TACAAATTGA: the switch fluorescence ratio amounted to 1.02 ± 0.021.

For the sequence AAAAAAGTGG, the switch fluorescence ratio worked out at 1.02 ± 0.026.

Turning to TGGGGGGTTC, the switch fluorescence ratio was determined as 1.04 ± 0.082.

On to AGGGCAATAT, for which the switch fluorescence ratio was 3.84 ± 0.48.

In the case of ATTCCAGAGG, the switch fluorescence ratio was 1.01 ± 0.02.

Take ATCGGTATAT: the switch fluorescence ratio is 1.02 ± 0.039.

As for TCATTGTTAT, the switch fluorescence ratio came out at 0.999 ± 0.036.

Consider ACCATGTAAG, for which the switch fluorescence ratio stood at 0.988 ± 0.035.

Consider TTTTTTGCTC, for which the switch fluorescence ratio came out at 1.02 ± 0.033.

For CGATTCTCAA, the switch fluorescence ratio is 1.021 ± 0.0006.

In the case of CAGGAATACT, the switch fluorescence ratio is 3.61 ± 3.

Turning to CAGTTCGGGA, the switch fluorescence ratio came out at 0.989 ± 0.02.

With AAGACTTGGG, the switch fluorescence ratio came to 1.05 ± 0.029.

In the case of GTGGAGGGTT, the switch fluorescence ratio worked out at 1.03 ± 0.04.

Take CGAAGGATTG: the switch fluorescence ratio was 0.992 ± 0.015.

TTTATAGGTC: the switch fluorescence ratio was 0.994 ± 0.038.

In the case of AAGCTGAGAA, the switch fluorescence ratio came to 1.016 ± 0.0071.

For GGGTGTTTTT, the switch fluorescence ratio stood at 0.98 ± 0.0073.

As for TTGAAAAAGT, the switch fluorescence ratio came to 0.992 ± 0.018.
